Measured values taken from patent US20230235058A1 (OXFORD UNIVERSITY INNOVATION, published 2023).

T1: full length cynomolgus BTLA expressed on Jurkat cells (cynomolgus monkey, UniProt Q7Z6A9 31-289 (human entry))
T1 chain: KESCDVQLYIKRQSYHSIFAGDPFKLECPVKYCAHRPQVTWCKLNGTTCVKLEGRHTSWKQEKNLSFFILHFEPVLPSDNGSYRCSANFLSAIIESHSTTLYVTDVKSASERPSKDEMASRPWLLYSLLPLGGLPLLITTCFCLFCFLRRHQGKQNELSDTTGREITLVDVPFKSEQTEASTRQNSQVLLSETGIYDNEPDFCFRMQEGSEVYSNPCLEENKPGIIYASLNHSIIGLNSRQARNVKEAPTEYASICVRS

T2: soluble cynomolgus macaque BTLA extracellular domain (BTLA K31-R151) (cynomolgus macaque)
T2 construct: also called cynomolgus BTLA; cyno BTLA
T2 chain: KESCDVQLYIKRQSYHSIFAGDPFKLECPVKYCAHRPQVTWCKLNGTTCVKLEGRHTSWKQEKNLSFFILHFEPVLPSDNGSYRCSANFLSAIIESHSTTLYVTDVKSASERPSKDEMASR

B1: 2.8.6 (antibody, V domains shown)
VH: QVQLKESGPGLVAPSQSLSITCTVSGFSLTTYGVHWVRQSPGKGLEWLGVMWPGGRTSYNPAPMSRLSISKDNSKSQVFLKMNSLQTDDTAMYYCVRGDYEYDYYAMDYWGQGTSVTVSS
VL: QIVLSQSPAILSASPGEKVTMTCRASSSVSYMHWYQQKPGSSPKPWIYATSNLASGVPARFSGSGSGTSYSLTISRMEAEDAATYYCHQWSSNPYTFGGGTKLEIK
notes: mouse IgG1k hybridoma antibody; also called clone 2.8.6
B2: 11.5.1 (antibody, V domains shown)
VH: EVQLQESGPSLVKPSQTLSLTCSVTGDSITSAYWNWIRKFPGNKLEYMGYISYSGSTYFNPSLKSRISITRNTSKNQYYLQLNSVTTEDTATYYCARSHYYGYYFDYWGHGTTLTVSS
VL: DIVLTQSPASLAVSLGQRATISCRASETIDSYGDSLMHWYQQKAGQPPKLLIYRASNLESGIPARFSGSGSRTDFTLTINPVEADDVATYYCQQTDEDPYTFGGGTKLEIK
notes: mouse IgG1k hybridoma antibody

Columns and labels:
[1] = target: T1, full length cynomolgus BTLA expressed …; assay: cell-based or functional assay
[2] = target: T3, chimeric BTLA of humanised-BTLA mice (human extracellular region, murine transmembrane and signaling … (human; mouse, UniProt Q7TSA3 184-306, limits assumed); assay: cell-based or functional assay
T3 sequence (Q7TSA3 other isoform, or with tags, fused parts or gaps mutant limits assumed): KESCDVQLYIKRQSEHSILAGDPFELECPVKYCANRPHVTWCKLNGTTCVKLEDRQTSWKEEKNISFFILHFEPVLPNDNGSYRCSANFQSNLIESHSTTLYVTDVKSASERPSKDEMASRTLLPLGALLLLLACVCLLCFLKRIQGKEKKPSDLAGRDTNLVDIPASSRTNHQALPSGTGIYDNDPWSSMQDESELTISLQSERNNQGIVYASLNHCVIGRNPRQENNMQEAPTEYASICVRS

[3] = target: T3, chimeric BTLA of humanised-BTLA mice …; assay: cell-based or functional assay; remark: listed apart in the source
[4] = target: T1, full length cynomolgus BTLA expressed …; assay: flow cytometry, BTLA Jurkat cells
Experimental: A lentiviral transfection system was used to express full length human or cynomolgus BTLA in a Jurkat T cell line. 1×10⁵ cells per well were plated in 96 well U-bottom plates. […] Secondary antibody was incubated for 30 minutes on ice, then cells were washed and resuspended in FACS buffer for analysis on a flow cytometer. The geometric mean fluorescent intensity of secondary antibody was plotted for each concentration and the EC50 for receptor binding calculated by non-linear curve fitting using GraphPad Prism software.
The ability of the BTLA agonist antibodies of the present invention to bind to human or cynomolgus BTLA expressed on the cell surface was assessed by flow cytometry. A lentiviral transfection system was used to express full length human or cynomolgus BTLA in a Jurkat T cell line. 1×10⁵ cells per well were plated in 96 well U-bottom plates.

[5] = target: T2, soluble cynomolgus macaque BTLA …; assay: SPR 37C, mAb captured, BTLA ECD analyte;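 further: Anti-BTLA mouse antibodies captured on a sensor chip via polyclonal anti-mouse IgG, isotype control antibody in reference channel, rates fitted after reference and blank subtraction to derive Kd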
Experimental: (§1) Mouse antibody capture kit (GE Healthcare) was used to coat a Series S CMS Sensor Chip (GE Healthcare) with polyclonal anti-mouse IgG. Anti-BTLA antibody was then captured onto the biosensor surface and a negative control antibody (clone Mopc21; Biolegend) captured in the reference channel. […] Association and dissociation rates were fitted using BiaEvaluation Software (GE Healthcare) after reference and blank subtractions, and dissociation constants were calculated (FIG. 1b).

[6] = target: T2, soluble cynomolgus macaque BTLA …; assay: SPR (Biacore T200), single cycle kinetics at 37 C, antibody captured on anti-mouse IgG, soluble BTLA extracellular domain as analyte
Experimental: as §1

R42E = target: T4, R42E (Mus musculus); assay: flow cytometry, GFP-positive transfected HEK-293T cells, fluorochrome-conjugated antibody at 10 ug/ml, Geo-mean relative to wild type;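 further: cells express mutant human BTLA ectodomain fused to murine CD28 transmembrane and cytoplasmic parts, stained 48 h after transfection for 1 h at 4 °C alongside a Live/Dead dye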
T4 construct: transmembrane and intracellular regions; also called BTLA R42E construct
Experimental: (§2) Constructs encoding the human extracellular region of BTLA with the transmembrane and intracellular regions of murine CD28 were cloned into the bi-cistronic mammalian expression vector pGFP2-n2 (BioSignal Packard Ltd), which also encodes GFP. […] Mock and no-transfection controls were included with each experiment. Cells were harvested at 48 hours and stained with fluorochrome-conjugated anti-BTLA antibody at 10 μg/ml, alongside a Live/Dead marker, in PBS, 0.05% azide, 2% FCS (FACS buffer) for 1 h at 4° C. Cells were washed, pelleted and resuspended in 200 μl FACS buffer before being analysed on a BD FACSCanto flow cytometer. […] For each mutant the Geo-mean of anti-BTLA antibody binding to transfected cells was expressed as a percentage of binding to the wild-type receptor (FIG. 3b). A panel of anti-BTLA antibodies was assessed and any mutation that eliminated binding of all antibodies was excluded from the analysis, on the assumption that such mutations lead to drastic changes in protein folding or expression rather than indicating an antibody epitope.

Q43R = target: T5, Q43R (Mus musculus); assay: as above
T5 construct: transmembrane and intracellular regions; also called BTLA Q43R construct
T5 sequence (Q7Z6A9 31-151 Q43R): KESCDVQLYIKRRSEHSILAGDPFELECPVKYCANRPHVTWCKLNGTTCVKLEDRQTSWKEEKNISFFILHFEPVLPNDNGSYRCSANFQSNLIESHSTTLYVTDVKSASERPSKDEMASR
Experimental: as §2

P53R = target: T6, P53R (Mus musculus); assay: as above
T6 construct: transmembrane and intracellular regions; also called BTLA P53R construct
T6 sequence (Q7Z6A9 31-151 P53R): as the sequence (Q7Z6A9 31-151 Q43R) above, with R13Q, P23R counted along it
Experimental: as §2

Row | Binder | inhibition of NFkB-GFP reporter, IC50 [1] [nM] | inhibition of CD4 T cell proliferation in MLR, IC50 [2] [nM] | AntiCD3/CD28 (CD4 T cell proliferation) repeat 1 [3] [% inhibition] | AntiCD3/CD28 (CD4 T cell proliferation) repeat 2 [3] [% inhibition] | AntiCD3/CD28 (CD69+ CD4 T cells) repeat 1 [3] [% inhibition] | AntiCD3/CD28 (CD69+ CD4 T cells) repeat 2 [3] [% inhibition] | MLR (CD4 T cell proliferation) repeat 1 [3] [% inhibition] | MLR (CD4 T cell proliferation) repeat 2 [3] [% inhibition] | EC50 [4] [nM] | Kd [5] [nM] | koff [6] [s⁻¹] | kon [6] [M⁻¹ s⁻¹] | binding as % of binding to wild-type BTLA (R42E) [%] | binding as % of binding to wild-type BTLA (Q43R) [%] | binding as % of binding to wild-type BTLA (P53R) [%] | Kd [6] [nM]
1 | B1 | 0.22 | 0.029 | 23 | 35 | 58 | 67 | 30 | 36 | 0.16 | 7.89 | 0.00627 | 795000 | 111 | 87.9 | 55.6 | –
2 | B2 | 0.14 | 0.016 | 21 | 28 | 50 | 47 | 23 | 18 | 0.0057 | 0.99 | 0.000952 | 957000 | 72.3 | 55.2 | 117 | 0.995
